Experimental data published in publication PMC8517284.

Target: FLAG-tagged CysD3 (DIO3, NM_001362, selenocysteine codon replaced with cysteine) (UniProt P55073)
Assay: co-IP

Myc-tagged β3 integrin (NM_000212.2), sequence (P05106 27-788): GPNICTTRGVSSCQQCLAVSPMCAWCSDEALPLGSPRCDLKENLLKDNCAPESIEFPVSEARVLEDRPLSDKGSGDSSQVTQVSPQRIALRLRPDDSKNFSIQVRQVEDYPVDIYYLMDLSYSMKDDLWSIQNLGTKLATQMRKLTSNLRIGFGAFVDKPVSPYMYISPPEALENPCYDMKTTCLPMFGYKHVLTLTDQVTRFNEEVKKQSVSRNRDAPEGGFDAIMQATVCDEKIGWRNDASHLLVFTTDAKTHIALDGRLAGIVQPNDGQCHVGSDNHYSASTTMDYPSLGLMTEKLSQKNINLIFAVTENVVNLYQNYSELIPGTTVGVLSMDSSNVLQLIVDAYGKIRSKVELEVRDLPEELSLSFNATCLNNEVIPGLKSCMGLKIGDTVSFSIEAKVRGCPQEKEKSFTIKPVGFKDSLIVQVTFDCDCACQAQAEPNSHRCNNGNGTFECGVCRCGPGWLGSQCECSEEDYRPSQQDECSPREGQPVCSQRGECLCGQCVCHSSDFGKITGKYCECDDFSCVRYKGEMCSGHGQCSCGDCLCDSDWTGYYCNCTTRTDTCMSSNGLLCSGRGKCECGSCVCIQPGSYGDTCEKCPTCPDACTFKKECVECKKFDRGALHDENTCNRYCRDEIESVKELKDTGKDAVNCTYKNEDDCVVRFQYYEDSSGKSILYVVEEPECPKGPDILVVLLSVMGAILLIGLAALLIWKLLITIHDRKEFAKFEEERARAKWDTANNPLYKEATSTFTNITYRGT
FLAG-tagged CysD3 (DIO3, NM_001362, selenocysteine codon replaced with cysteine), sequence (P55073 whole entry): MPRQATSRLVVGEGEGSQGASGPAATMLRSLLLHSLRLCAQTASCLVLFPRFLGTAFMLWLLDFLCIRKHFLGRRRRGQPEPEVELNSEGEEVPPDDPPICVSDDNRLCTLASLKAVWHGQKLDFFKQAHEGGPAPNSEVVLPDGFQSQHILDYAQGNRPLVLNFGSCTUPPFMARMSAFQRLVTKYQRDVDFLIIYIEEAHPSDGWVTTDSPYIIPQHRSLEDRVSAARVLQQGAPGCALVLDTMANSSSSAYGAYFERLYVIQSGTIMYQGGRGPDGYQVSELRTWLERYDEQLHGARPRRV

Substance: Myc-tagged β3 integrin (NM_000212.2) (from UniProt P05106-1 27-788) (receptor)
- fold reduction of the co-immunoprecipitation in the presence of cRGD and Tetrac: > 2 fold
